Experimental data from US20100322941A1 (published 2010).

T1: recombinant human IP-10 (human, UniProt P02778 22-98)
T1 construct: mature; also called hIP-10; rhIP-10
T1 sequence (looked up): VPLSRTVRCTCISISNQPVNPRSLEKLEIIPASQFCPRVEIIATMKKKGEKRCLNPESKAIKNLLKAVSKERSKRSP


How the values were obtained:
recombinant human IP-10 [1] = target: T1, recombinant human IP-10; assay: cell-based or functional assay
recombinant human IP-10 [2] = target: T1, recombinant human IP-10; assay: SPR (Biacore 2000); the text's value differs from Table 8 (9.2 × 10^-9 M)
Protocol: 200RU (response unit) of a goat anti-human polyclonal IgG (ahIgG; Biacore AB, Uppsala, Sweden) were immobilized by EDC/NHS chemistry on a C1 Biacore chip. […] The surface was regenerated after each cycle by injection of 10 mM glycine pH=1.5 at 30 μL/min, for 30 s followed by 1 min. of stabilization time in HBS-EP buffer.
Binding was measured by passing either hIP-10 (Peprotech, Rocky Hill N.J.) or a NusA-hIP-10 fusion protein at the following concentrations: 34.7 nM, 11.6 nM, 3.85 nM, 1.28 nM, 0.428 nM, 0.142 nM and OnM. All solutions were diluted in HBS-EP buffer (Biacore AB, Uppsala, Sweden). Injection was performed at 50 μl/min for 3 min. followed by 12 min. of dissociation time and the temperature was set at 25° C. […] Very similar values were obtained using rhIP-10 or the NusA-hIP-10 fusion, but better response signals were obtained with the fusion protein due to its larger size that induces a better response on the Biacore.

Calcium flux IC50 (nM); hCXCR3-expressing L1.2 cells, 10 nM hIP-10 (recombinant human IP-10 [1]) [nM] | Chemotaxis IC50 (nM); hCXCR3-expressing L1.2 cells, 1 nM hIP-10 (recombinant human IP-10 [1]) [nM] | Chemotaxis IC50 (nM); hCXCR3-expressing L1.2 cells, 2 nM hIP-10 (recombinant human IP-10 [1]) [nM] | Kd (recombinant human IP-10 [2]) [nM] | Binder
89 | 90 | – | – | CC21R3P5_C5 (scFv format) (scFv, part only; not given: linker and tags, part only) scFv, part: QVQLVQSGGGVVQPGRSLRLSCAASGFTFSTYGMHWVRQAPGKGLEWVAVISYDGGTKYYADSVKGRFTISRDNSMKTLYLQMNSLRTEDTAVYYCAKDLGDLPPGLDYWGRGTMVTVSSCHEMICALLYSYNTHESIZEDSYELTQPPSVSVALGQTATITCGGSSIESKSVHWYQEKPGQAPVLVIYKDSNRPSVIPERFSGSNSGNTATLTIGRAQAGDEADYYCQVWDSSTGVVFGGGTKLTVL
14 | 1.8 | – | – | CF1A11R3P3_F3 (scFv format) (scFv, part only; not given: linker, domain order, vector tags, V domains shown, not shown: another chain or arm of the molecule; small tags and cut ends) VH: QVQLVESGGGVVQPGRSLRLSCAASGFTFSNSGIHWVRQAPGKGLEWVAVISYDGSNKFYADSVKGRFTISRDNSKNTLYLQMNSLRAEDTAVYYCAKLRDNGEYLDYWGQGTLVTVSS VL: NFMLTQPHSVSESPGKTVTISCTGSGGSIDRNYVQWYQQRPGSAPITVIYEDNQRPSGVPDRFSGSIDSSSNSASLTISGLRTDDEADYYCQSYDSINLWVFGGGTKVTVL

Second part, the binder before the results:

Binder | Calcium flux IC50 (nM); hCXCR3-expressing L1.2 cells, 10 nM hIP-10 (recombinant human IP-10 [1]) [nM] | Chemotaxis IC50 (nM); hCXCR3-expressing L1.2 cells, 1 nM hIP-10 (recombinant human IP-10 [1]) [nM] | Chemotaxis IC50 (nM); hCXCR3-expressing L1.2 cells, 2 nM hIP-10 (recombinant human IP-10 [1]) [nM] | Kd (recombinant human IP-10 [2]) [nM]
CC21R3P1_F1 (scFv format) (scFv, part only; not given: linker, domain order, vector tags, V domains shown, not shown: another chain or arm of the molecule; small tags and cut ends) VH: QVQLVESGGGVVQPGRSHTLSCAASGFAFKNSGIHWVRQAPGKGLEWVAVISYDGSNKFYADSVKGRFTISRDNSQNTVYLQMTDLRPDDTAVYYCARDGSESEYLDYWGKGTLVTVSS VL: NFMLTQPHSVSESPGKTVTISCTGSGGSIDRNYVQWYQQRPGSAPITVIYEDNQRPSGVPDRFSGSIDSSSNSASLTISGLRTDDEADYYCQSYDSINLWVFGGGTKVTVL | 36 | – | 18 | –
CC21R3P1_F1 (IgG1 format) (antibody, V domains shown) VH: QVQLVESGGGVVQPGRSHTLSCAASGFAFKNSGIHWVRQAPGKGLEWVAVISYDGSNKFYADSVKGRFTISRDNSQNTVYLQMTDLRPDDTAVYYCARDGSESEYLDYWGKGTLVTVSS VL: NFMLTQPHSVSESPGKTVTISCTGSGGSIDRNYVQWYQQRPGSAPITVIYEDNQRPSGVPDRFSGSIDSSSNSASLTISGLRTDDEADYYCQSYDSINLWVFGGGTKVTVL | – | – | – | 90.2
